Biological target: RARα (UniProt P10276)
Experiment: Flag IP of RARα, GFP-p65 blot
Settings: reference: GFP-p65 wild type; sites S276

binding against the reference: lost
Substance: RelA/p65 (from UniProt Q04206) GFP-p65-S276A

From PMC9870083
